Assay results published in paper PMC4859152 (The Biochemical journal, 2015).

Assays:
[1] = target: the molecule itself; experiment: non-reducing SDS/PAGE
[2] = target: the molecule itself; experiment: SEC
[3] = target: the molecule itself; experiment: SEC; remark: listed apart in the source

Row | Protein | stoichiometry N [1] | stoichiometry N [2] | stoichiometry N [3]
1 | WT Prx2, oxidized (disulfide) (enzyme, human, UniProt P32119 1-198, looked up, intermolecular disulfides between Cys-Sp and Cys-Sr of the opposing subunit (two per dimer)) MASGNARIGKPAPDFKATAVVDGAFKEVKLSDYKGKYVVLFFYPLDFTFVCPTEIIAFSNRAEDFRKLGCEVLGVSVDSQFTHLAWINTPRKEGGLGPLNIPLLADVTRRLSEDYGVLKTDEGIAYRGLFIIDGKGVLRQITVNDLPVGRSVDEALRLVQAFQYTDEHGEVCPAGWKPGSDTIKPNVDDSKEYFSKHN | 2 | 10 | –
2 | CT* Prx2, oxidized (as purified) (enzyme, human, UniProt P32119 1-198, looked up, oxidized form (inter-subunit disulfides)) MASGNARIGKPAPDFKATAVVDGAFKEVKLSDYKGKYVVLFFYPLDFTFVCPTEIIAFSNRAEDFRKLGCEVLGVSVDSQFTHLAWINTPRKEGGLGPLNIPLLADVTRRLSEDYGVLKTDEGIAYRGLFIIDGKGVLRQITVNDLPVGRSVDEALRLVQAFQYTDEHGEVCPANWTPDSPTIKPNVDDSKEYFSKHN | 2 | – | –
3 | WT Prx3, hyperoxidized dimer (enzyme, human, UniProt P30048 62-256, looked up, per dimer: one Cys-Sp as sulfinic acid (SpO2-), the other active site a Cys-Sp to Cys-Sr disulfide) APAVTQHAPYFKGTAVVNGEFKDLSLDDFKGKYLVLFFYPLDFTFVCPTEIVAFSDKANEFHDVNCEVVAVSVDSHFSHLAWINTPRKNGGLGHMNIALLSDLTKQISRDYGVLLEGSGLALRGLFIIDPNGVIKHLSVNDLPVGRSVEETLRLVKAFQYVETHGEVCPANWTPDSPTIKPSPAASKEYFQKVNQ | – | 2 | –
4 | CT* Prx3, oxidized (as purified) (enzyme, human, UniProt P30048 62-256, looked up, oxidized form (inter-subunit disulfides)) APAVTQHAPYFKGTAVVNGEFKDLSLDDFKGKYLVLFFYPLDFTFVCPTEIVAFSDKANEFHDVNCEVVAVSVDSHFSHLAWINTPRKNGGLGHMNIALLSDLTKQISRDYGVLLEGSGLALRGLFIIDPNGVIKHLSVNDLPVGRSVEETLRLVKAFQYVETHGEVCPAGWKPGSDTIKPSPAASKEYFQKVNQ | 2 | – | –
5 | WT Prx3, oxidized (disulfide) (enzyme, human, UniProt P30048 62-256, looked up, intermolecular disulfides between Cys-Sp and Cys-Sr of the opposing subunit (two per dimer)) APAVTQHAPYFKGTAVVNGEFKDLSLDDFKGKYLVLFFYPLDFTFVCPTEIVAFSDKANEFHDVNCEVVAVSVDSHFSHLAWINTPRKNGGLGHMNIALLSDLTKQISRDYGVLLEGSGLALRGLFIIDPNGVIKHLSVNDLPVGRSVEETLRLVKAFQYVETHGEVCPANWTPDSPTIKPSPAASKEYFQKVNQ | 2 | – | –
6 | WT Prx3, reduced (enzyme, human, UniProt P30048 62-256, looked up) APAVTQHAPYFKGTAVVNGEFKDLSLDDFKGKYLVLFFYPLDFTFVCPTEIVAFSDKANEFHDVNCEVVAVSVDSHFSHLAWINTPRKNGGLGHMNIALLSDLTKQISRDYGVLLEGSGLALRGLFIIDPNGVIKHLSVNDLPVGRSVEETLRLVKAFQYVETHGEVCPANWTPDSPTIKPSPAASKEYFQKVNQ | – | – | 2
